Measured values reported in publication PMC5588873 (Cell reports, 2017).

B1: AGO2 (natural protein)
chain: not shown
B2: TP53BP1 (natural protein, human (endogenous in HeLa), UniProt Q12888 1-1972, looked up)
chain: MDPTGSQLDSDFSQQDTPCLIIEDSQPESQVLEDDSGSHFSMLSRHLPNLQTHKENPVLDVVSNPEQTAGEERGDGNSGFNEHLKENKVADPVDSSNLDTCGSISQVIEQLPQPNRTSSVLGMSVESAPAVEEEKGEELEQKEKEKEEDTSGNTTHSLGAEDTASSQLGFGVLELSQSQDVEENTVPYEVDKEQLQSVTTNSGYTRLSDVDANTAIKHEEQSNEDIPIAEQSSKDIPVTAQPSKDVHVVKEQNPPPARSEDMPFSPKASVAAMEAKEQLSAQELMESGLQIQKSPEPEVLSTQEDLFDQSNKTVSSDGCSTPSREEGGCSLASTPATTLHLLQLSGQRSLVQDSLSTNSSDLVAPSPDAFRSTPFIVPSSPTEQEGRQDKPMDTSVLSEEGGEPFQKKLQSGEPVELENPPLLPESTVSPQASTPISQSTPVFPPGSLPIPSQPQFSHDIFIPSPSLEEQSNDGKKDGDMHSSSLTVECSKTSEIEPKNSPEDLGLSLTGDSCKLMLSTSEYSQSPKMESLSSHRIDEDGENTQIEDTEPMSPVLNSKFVPAENDSILMNPAQDGEVQLSQNDDKTKGDDTDTRDDISILATGCKGREETVAEDVCIDLTCDSGSQAVPSPATRSEALSSVLDQEEAMEIKEHHPEEGSSGSEVEEIPETPCESQGEELKEENMESVPLHLSLTETQSQGLCLQKEMPKKECSEAMEVETSVISIDSPQKLAILDQELEHKEQEAWEEATSEDSSVVIVDVKEPSPRVDVSCEPLEGVEKCSDSQSWEDIAPEIEPCAENRLDTKEEKSVEYEGDLKSGTAETEPVEQDSSQPSLPLVRADDPLRLDQELQQPQTQEKTSNSLTEDSKMANAKQLSSDAEAQKLGKPSAHASQSFCESSSETPFHFTLPKEGDIIPPLTGATPPLIGHLKLEPKRHSTPIGISNYPESTIATSDVMSESMVETHDPILGSGKGDSGAAPDVDDKLCLRMKLVSPETEASEESLQFNLEKPATGERKNGSTAVAESVASPQKTMSVLSCICEARQENEARSEDPPTTPIRGNLLHFPSSQGEEEKEKLEGDHTIRQSQQPMKPISPVKDPVSPASQKMVIQGPSSPQGEAMVTDVLEDQKEGRSTNKENPSKALIERPSQNNIGIQTMECSLRVPETVSAATQTIKNVCEQGTSTVDQNFGKQDATVQTERGSGEKPVSAPGDDTESLHSQGEEEFDMPQPPHGHVLHRHMRTIREVRTLVTRVITDVYYVDGTEVERKVTEETEEPIVECQECETEVSPSQTGGSSGDLGDISSFSSKASSLHRTSSGTSLSAMHSSGSSGKGAGPLRGKTSGTEPADFALPSSRGGPGKLSPRKGVSQTGTPVCEEDGDAGLGIRQGGKAPVTPRGRGRRGRPPSRTTGTRETAVPGPLGIEDISPNLSPDDKSFSRVVPRVPDSTRRTDVGAGALRRSDSPEIPFQAAAGPSDGLDASSPGNSFVGLRVVAKWSSNGYFYSGKITRDVGAGKYKLLFDDGYECDVLGKDILLCDPIPLDTEVTALSEDEYFSAGVVKGHRKESGELYYSIEKEGQRKWYKRMAVILSLEQGNRLREQYGLGPYEAVTPLTKAADISLDNLVEGKRKRRSNVSSPATPTASSSSSTTPTRKITESPRASMGVLSGKRKLITSEEERSPAKRGRKSATVKPGAVGAGEFVSPCESGDNTGEPSALEEQRGPLPLNKTLFLGYAFLLTMATTSDKLASRSKLPDGPTGSSEEEEEFLEIPPFNKQYTESQLRAGAGYILEDFNEAQCNTAYQCLLIADQHCRTRKYFLCLASGIPCVSHVWVHDSCHANQLQNYRNYLLPAGYSLEEQRILDWQPRENPFQNLKVLLVSDQQQNFLELWSEILMTGGAASVKQHHSSAHNKDIALGVFDVVVTDPSCPASVLKCAEALQLPVVSQEWVIQCLIVGERIGFKQHPKYKHDYVSH

Biological target: TNRC6A (human (endogenous in HeLa), UniProt Q8NDV7 1-1962)
Test: affinity purification with mass spectrometry

TNRC6A, sequence (Q8NDV7 whole entry): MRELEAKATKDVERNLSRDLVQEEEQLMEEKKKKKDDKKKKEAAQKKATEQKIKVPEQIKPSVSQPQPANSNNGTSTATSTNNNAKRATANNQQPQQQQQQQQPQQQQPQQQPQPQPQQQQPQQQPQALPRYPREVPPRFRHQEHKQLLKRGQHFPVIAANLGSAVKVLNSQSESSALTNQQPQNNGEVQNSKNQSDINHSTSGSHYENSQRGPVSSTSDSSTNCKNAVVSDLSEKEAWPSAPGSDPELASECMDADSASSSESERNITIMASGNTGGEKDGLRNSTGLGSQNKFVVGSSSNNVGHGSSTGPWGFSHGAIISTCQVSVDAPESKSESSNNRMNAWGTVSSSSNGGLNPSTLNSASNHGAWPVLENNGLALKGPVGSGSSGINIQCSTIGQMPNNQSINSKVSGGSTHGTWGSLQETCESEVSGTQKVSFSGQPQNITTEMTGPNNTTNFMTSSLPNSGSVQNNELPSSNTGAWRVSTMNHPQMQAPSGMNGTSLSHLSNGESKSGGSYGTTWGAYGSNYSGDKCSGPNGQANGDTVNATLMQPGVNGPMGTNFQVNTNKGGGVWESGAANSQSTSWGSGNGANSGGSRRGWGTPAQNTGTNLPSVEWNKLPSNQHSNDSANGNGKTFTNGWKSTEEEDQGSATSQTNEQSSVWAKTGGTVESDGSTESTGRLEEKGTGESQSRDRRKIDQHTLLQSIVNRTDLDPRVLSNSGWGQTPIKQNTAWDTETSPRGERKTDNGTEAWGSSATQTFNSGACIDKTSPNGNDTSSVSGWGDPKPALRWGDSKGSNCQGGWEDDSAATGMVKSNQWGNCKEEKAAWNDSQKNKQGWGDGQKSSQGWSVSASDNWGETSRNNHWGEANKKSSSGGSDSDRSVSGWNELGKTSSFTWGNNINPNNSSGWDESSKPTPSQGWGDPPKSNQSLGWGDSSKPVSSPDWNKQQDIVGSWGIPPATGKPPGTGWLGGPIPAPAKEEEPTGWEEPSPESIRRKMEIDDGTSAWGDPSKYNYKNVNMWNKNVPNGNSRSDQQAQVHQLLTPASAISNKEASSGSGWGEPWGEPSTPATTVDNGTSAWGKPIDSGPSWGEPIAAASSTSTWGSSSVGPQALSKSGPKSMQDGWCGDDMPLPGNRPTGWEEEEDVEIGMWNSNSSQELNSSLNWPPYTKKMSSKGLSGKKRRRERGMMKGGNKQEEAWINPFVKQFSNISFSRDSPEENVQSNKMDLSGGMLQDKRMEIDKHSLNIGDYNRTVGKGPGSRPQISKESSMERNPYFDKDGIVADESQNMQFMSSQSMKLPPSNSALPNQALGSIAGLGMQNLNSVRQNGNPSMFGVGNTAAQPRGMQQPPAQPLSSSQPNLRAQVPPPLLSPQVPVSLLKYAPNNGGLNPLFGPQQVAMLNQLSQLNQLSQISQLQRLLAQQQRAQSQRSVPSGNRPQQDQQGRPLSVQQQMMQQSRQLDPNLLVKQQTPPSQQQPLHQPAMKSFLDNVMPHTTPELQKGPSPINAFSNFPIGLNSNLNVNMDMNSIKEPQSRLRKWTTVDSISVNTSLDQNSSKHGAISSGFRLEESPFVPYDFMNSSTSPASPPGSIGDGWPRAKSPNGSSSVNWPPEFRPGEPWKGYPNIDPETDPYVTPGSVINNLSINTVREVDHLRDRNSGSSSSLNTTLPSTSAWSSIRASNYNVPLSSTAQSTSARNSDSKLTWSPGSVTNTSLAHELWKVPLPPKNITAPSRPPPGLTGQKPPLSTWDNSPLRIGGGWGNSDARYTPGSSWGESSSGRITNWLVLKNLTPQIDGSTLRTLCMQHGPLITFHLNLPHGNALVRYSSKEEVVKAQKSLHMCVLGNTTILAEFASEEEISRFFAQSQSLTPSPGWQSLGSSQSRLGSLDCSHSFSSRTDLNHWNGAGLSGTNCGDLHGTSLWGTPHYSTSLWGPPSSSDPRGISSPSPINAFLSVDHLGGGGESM

Row | Binder | stoichiometry N
1 | B1 | 2.2 per TNRC6A (=1)
2 | B2 | ~1.52 per TNRC6A (=1)
